# B1: mAb 14G8 (antibody, V domains shown)
# VH: EVQLLESGGGLVQPGGSLKLSCATSGFTFSAYGLSWVRQTPERRLEWVASISGGGSVYYPDSVKGRFTISRDTAGDILFLQMNSLRSEDSAIYYCVRDLYGDYVGRYAYWGQGTLVIVSA
# VL: DIVMTQSPATLSVTPGDRVSLSCRASQSIGDYLHWYQQKSHESPRLLINYASQSISGIPSRFSGSGSGSDFTLIINSVEPEDVGVYYCQNGHSFPYTFGGGTKLEIR
# B2: mAb 20B1 (antibody, V domains shown)
# VH: QIQLVQSGPELKKPGETVRISCKASGYIFTIAGIQWVQKMPGRGLRWIGWINTHSGVPEYAEEFKGRFAFSLETSARTAYLQISNLKDEDTATYFCARIYYGNNGGVMDYWGQGTSVTVSS
# VL: DIQMTQSPSSLSASLGERVSLTCRASQEISDYLTWLQQKPDGTIKRLIYVASSLDSGVPKRFSGSRSGSDYSLTISSLESEDFADYYCLQYANYPWTFGGGTKLEIR
# B3: mAb 6D3 (antibody, V domains shown)
# VH: QVQLQQSGAELVKPGASVKLSCKASGYTFTSHWMHWVKQRPGQGLEWIGEIDPSDSYINYNQIFEGKATLTVDKSSTTAYLQLSSLTSEDSAVYYCARTAGLLAPMDYWGQGTSVTVSS
# VL: DIVMTQSPSSLTVTAGEKVTMTCKSSQSLFNSGNQKNFLTWYQQIPGQPPKLLIYWASTRDSGVPDRFTGSGSGTDFTLTISSVQAEDLAVYYCQNDYTYPLTFGVGTKLELK
# Biological target: T1, toxic shock syndrome toxin-1 (TSST-1) (Staphylococcus aureus, UniProt P06886 41-234)
# T1 sequence: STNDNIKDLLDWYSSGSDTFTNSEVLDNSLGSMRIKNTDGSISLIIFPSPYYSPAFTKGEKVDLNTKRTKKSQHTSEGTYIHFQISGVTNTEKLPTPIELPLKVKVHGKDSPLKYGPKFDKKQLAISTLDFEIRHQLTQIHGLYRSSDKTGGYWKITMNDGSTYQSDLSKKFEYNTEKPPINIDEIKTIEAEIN
# Assay: Western blot with purified toxin
row,Binder,binding result
1,B1,no binding
2,B2,no binding
3,B3,no binding

# Biological target: T2, staphylococcal enterotoxin A (SEA) (Staphylococcus aureus, UniProt P0A0L1 25-257)
# T2 sequence: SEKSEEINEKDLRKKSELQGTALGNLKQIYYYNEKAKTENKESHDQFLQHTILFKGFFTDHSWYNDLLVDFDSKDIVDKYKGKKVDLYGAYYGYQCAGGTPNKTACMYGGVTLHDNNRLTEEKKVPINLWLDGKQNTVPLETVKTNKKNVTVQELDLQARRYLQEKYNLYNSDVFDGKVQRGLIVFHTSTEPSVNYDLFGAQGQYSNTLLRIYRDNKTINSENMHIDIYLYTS
# Assay: Western blot with purified toxin
row,Binder,binding result
1,B1,no binding
2,B2,no binding
3,B3,no binding

# From US20140234325A1 (ALBERT EINSTEIN COLLEGE OF MEDICINE, published 2014)
